13 molecules from US20140037621A1 (JN BIOSCIENCES, published 2014) can be followed below.

To fix the notation:
T1: CD30 on the surface of Karpas 299 cells (human, UniProt P28908 19-595)
T1 sequence (looked up): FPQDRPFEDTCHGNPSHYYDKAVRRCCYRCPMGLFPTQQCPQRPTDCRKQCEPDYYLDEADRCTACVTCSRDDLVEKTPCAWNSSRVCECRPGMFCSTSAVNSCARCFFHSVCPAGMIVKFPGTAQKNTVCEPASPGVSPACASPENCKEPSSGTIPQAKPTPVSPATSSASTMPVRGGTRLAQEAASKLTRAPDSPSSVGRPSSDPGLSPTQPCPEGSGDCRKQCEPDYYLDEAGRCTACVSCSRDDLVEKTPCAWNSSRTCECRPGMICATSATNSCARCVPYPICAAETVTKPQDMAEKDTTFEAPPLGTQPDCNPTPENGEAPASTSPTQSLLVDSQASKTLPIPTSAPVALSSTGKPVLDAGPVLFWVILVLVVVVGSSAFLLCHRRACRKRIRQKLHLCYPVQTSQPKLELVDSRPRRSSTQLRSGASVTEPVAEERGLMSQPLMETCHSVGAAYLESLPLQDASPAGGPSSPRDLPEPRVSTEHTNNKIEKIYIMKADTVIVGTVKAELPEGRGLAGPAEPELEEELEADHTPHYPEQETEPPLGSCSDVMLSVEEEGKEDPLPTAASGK

B1: HuYON007.V279-Fcµtp monomer (antibody, human IgG1, lambda)
heavy: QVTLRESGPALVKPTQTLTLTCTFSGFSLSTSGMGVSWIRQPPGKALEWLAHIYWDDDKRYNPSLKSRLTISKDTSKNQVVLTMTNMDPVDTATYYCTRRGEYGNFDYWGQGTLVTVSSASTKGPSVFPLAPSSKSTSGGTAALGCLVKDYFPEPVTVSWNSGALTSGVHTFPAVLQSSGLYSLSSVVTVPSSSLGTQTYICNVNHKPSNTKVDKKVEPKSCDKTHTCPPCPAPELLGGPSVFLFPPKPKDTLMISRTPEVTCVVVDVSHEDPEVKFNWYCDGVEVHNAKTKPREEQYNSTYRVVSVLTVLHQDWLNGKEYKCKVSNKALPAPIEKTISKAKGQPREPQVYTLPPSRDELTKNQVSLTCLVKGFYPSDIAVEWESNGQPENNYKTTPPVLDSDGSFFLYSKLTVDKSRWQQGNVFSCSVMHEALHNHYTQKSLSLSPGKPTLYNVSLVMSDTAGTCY
light: QTVVTQEPSFSVSPGGTVTLTCRSSSGAVTTSNFANWVQQTPGQAPRGLIGGTNNRAPGVPDRFSGSILGNKAALTITGAQADDESDYYCALWYSNHWVFGGGTKLTVLGQPKAAPSVTLFPPSSEELQANKATLVCLISDFYPGAVTVAWKADSSPVKAGVETTTPSKQSNNKYAASSYLSLTPEQWKSHRSYSCQVTHEGSTVEKTVAPTECS
B2: HuYON007.L309-Fcµtp monomer (antibody, human IgG1, lambda)
heavy: not shown
light: QTVVTQEPSFSVSPGGTVTLTCRSSSGAVTTSNFANWVQQTPGQAPRGLIGGTNNRAPGVPDRFSGSILGNKAALTITGAQADDESDYYCALWYSNHWVFGGGTKLTVLGQPKAAPSVTLFPPSSEELQANKATLVCLISDFYPGAVTVAWKADSSPVKAGVETTTPSKQSNNKYAASSYLSLTPEQWKSHRSYSCQVTHEGSTVEKTVAPTECS
B3: HuYON007.H285-Fcµtp multimer (antibody, human IgG1, lambda)
heavy: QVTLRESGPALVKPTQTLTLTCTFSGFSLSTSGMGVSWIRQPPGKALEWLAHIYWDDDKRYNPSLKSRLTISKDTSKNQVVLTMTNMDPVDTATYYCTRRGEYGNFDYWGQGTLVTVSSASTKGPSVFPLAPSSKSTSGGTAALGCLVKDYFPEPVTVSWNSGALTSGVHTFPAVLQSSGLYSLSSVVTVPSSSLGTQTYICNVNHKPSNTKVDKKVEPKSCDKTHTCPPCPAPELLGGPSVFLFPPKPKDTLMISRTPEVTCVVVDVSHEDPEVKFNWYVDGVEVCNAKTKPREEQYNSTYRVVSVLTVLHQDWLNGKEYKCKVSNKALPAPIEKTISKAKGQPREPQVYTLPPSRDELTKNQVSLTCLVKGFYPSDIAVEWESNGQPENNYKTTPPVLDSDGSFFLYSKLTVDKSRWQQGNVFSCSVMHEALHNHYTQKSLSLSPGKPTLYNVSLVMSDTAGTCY
light: QTVVTQEPSFSVSPGGTVTLTCRSSSGAVTTSNFANWVQQTPGQAPRGLIGGTNNRAPGVPDRFSGSILGNKAALTITGAQADDESDYYCALWYSNHWVFGGGTKLTVLGQPKAAPSVTLFPPSSEELQANKATLVCLISDFYPGAVTVAWKADSSPVKAGVETTTPSKQSNNKYAASSYLSLTPEQWKSHRSYSCQVTHEGSTVEKTVAPTECS
B4: HuYON007.V279-Fcµtp multimer (antibody, human IgG1, lambda)
heavy: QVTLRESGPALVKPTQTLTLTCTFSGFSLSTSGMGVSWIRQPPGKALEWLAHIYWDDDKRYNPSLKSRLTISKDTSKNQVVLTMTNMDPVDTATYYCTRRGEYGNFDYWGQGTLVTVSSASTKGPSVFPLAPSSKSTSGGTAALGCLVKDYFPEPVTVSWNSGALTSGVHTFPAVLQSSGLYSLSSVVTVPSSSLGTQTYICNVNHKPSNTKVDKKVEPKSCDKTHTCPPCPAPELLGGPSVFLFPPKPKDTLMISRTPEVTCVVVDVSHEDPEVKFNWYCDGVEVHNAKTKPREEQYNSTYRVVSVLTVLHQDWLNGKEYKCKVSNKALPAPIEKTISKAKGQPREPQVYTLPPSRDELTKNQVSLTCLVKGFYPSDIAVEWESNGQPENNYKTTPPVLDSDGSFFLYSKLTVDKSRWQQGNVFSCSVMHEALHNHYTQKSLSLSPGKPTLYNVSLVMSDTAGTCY
light: QTVVTQEPSFSVSPGGTVTLTCRSSSGAVTTSNFANWVQQTPGQAPRGLIGGTNNRAPGVPDRFSGSILGNKAALTITGAQADDESDYYCALWYSNHWVFGGGTKLTVLGQPKAAPSVTLFPPSSEELQANKATLVCLISDFYPGAVTVAWKADSSPVKAGVETTTPSKQSNNKYAASSYLSLTPEQWKSHRSYSCQVTHEGSTVEKTVAPTECS
B5: HuYON007.A287-Fcµtp multimer (antibody, human IgG1, lambda)
heavy: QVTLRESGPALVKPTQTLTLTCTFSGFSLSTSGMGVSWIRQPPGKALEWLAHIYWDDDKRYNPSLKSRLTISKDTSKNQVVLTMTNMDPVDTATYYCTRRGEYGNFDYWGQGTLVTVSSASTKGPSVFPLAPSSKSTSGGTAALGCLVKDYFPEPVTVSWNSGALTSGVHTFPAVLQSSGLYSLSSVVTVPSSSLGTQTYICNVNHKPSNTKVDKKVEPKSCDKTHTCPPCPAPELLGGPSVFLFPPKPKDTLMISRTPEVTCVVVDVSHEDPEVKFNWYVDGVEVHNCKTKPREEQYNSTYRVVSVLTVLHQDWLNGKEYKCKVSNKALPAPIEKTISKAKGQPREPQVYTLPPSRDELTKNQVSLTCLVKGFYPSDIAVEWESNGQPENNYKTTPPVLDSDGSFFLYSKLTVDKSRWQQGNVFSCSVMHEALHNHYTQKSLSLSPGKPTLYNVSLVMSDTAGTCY
light: QTVVTQEPSFSVSPGGTVTLTCRSSSGAVTTSNFANWVQQTPGQAPRGLIGGTNNRAPGVPDRFSGSILGNKAALTITGAQADDESDYYCALWYSNHWVFGGGTKLTVLGQPKAAPSVTLFPPSSEELQANKATLVCLISDFYPGAVTVAWKADSSPVKAGVETTTPSKQSNNKYAASSYLSLTPEQWKSHRSYSCQVTHEGSTVEKTVAPTECS
B6: HuYON007.A287-Fcµtp monomer (antibody, human IgG1, lambda)
heavy: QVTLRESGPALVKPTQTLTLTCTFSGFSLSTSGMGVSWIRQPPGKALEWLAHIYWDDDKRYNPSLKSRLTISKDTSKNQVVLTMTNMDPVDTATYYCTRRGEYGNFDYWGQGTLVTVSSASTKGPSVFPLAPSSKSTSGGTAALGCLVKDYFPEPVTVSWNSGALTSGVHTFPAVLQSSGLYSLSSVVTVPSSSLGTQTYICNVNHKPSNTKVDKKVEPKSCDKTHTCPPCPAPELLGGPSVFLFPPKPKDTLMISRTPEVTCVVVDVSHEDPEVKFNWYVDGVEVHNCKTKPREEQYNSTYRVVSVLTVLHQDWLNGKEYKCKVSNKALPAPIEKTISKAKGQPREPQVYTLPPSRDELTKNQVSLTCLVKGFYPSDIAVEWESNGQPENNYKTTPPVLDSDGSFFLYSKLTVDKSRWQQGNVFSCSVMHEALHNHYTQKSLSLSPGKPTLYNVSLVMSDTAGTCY
light: QTVVTQEPSFSVSPGGTVTLTCRSSSGAVTTSNFANWVQQTPGQAPRGLIGGTNNRAPGVPDRFSGSILGNKAALTITGAQADDESDYYCALWYSNHWVFGGGTKLTVLGQPKAAPSVTLFPPSSEELQANKATLVCLISDFYPGAVTVAWKADSSPVKAGVETTTPSKQSNNKYAASSYLSLTPEQWKSHRSYSCQVTHEGSTVEKTVAPTECS
B7: HuYON007.L309-Fcµtp multimer (antibody, human IgG1, lambda)
heavy: not shown
light: QTVVTQEPSFSVSPGGTVTLTCRSSSGAVTTSNFANWVQQTPGQAPRGLIGGTNNRAPGVPDRFSGSILGNKAALTITGAQADDESDYYCALWYSNHWVFGGGTKLTVLGQPKAAPSVTLFPPSSEELQANKATLVCLISDFYPGAVTVAWKADSSPVKAGVETTTPSKQSNNKYAASSYLSLTPEQWKSHRSYSCQVTHEGSTVEKTVAPTECS
B8: HuYON007.H285-Fcµtp monomer (antibody, human IgG1, lambda)
heavy: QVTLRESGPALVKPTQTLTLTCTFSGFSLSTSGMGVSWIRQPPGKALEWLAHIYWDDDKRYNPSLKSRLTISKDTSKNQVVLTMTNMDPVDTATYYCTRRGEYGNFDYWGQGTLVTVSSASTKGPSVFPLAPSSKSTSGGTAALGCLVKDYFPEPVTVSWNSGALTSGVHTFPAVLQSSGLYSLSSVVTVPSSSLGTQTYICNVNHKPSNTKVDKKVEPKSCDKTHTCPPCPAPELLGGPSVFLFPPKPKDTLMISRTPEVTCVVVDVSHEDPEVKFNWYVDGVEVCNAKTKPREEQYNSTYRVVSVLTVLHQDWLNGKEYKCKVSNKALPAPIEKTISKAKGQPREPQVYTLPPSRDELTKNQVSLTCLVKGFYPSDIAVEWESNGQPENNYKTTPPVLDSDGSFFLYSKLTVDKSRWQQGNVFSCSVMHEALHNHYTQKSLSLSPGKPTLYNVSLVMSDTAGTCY
light: QTVVTQEPSFSVSPGGTVTLTCRSSSGAVTTSNFANWVQQTPGQAPRGLIGGTNNRAPGVPDRFSGSILGNKAALTITGAQADDESDYYCALWYSNHWVFGGGTKLTVLGQPKAAPSVTLFPPSSEELQANKATLVCLISDFYPGAVTVAWKADSSPVKAGVETTTPSKQSNNKYAASSYLSLTPEQWKSHRSYSCQVTHEGSTVEKTVAPTECS
B9: ChSan11 IgG1/kappa antibody (mouse-human chimeric anti-human CD30) (antibody)
heavy: not shown
VL: DIVLTQSPASLAVSLGQRATISCRASESVEYYGTGLMQWYQQKPGQPPKLLIYSASNVESGVPARFTGSGSGTDFSLNIHPVEEDDIAMYFCQQSRKVPWTFGGGTKLEIKR
B10: ChSan11.V279-Fcµtp multimer (antibody, human IgG1)
heavy: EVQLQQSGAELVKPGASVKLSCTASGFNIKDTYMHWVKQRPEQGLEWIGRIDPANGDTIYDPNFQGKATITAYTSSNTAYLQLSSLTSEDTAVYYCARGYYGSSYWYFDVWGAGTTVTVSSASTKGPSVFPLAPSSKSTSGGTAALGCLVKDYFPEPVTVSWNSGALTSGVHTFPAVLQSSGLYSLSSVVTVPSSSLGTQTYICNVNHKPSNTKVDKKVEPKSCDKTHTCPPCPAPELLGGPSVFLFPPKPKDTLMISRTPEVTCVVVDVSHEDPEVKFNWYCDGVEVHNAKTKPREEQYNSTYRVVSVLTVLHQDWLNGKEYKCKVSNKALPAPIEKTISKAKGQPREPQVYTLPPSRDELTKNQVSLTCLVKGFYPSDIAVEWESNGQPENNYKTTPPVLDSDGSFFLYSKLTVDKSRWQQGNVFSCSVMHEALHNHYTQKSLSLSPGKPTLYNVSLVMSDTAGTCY
VL: DIVLTQSPASLAVSLGQRATISCRASESVEYYGTGLMQWYQQKPGQPPKLLIYSASNVESGVPARFTGSGSGTDFSLNIHPVEEDDIAMYFCQQSRKVPWTFGGGTKLEIKR
B11: ChSan11.L309-Fcµtp multimer (antibody, human IgG1)
heavy: not shown
VL: DIVLTQSPASLAVSLGQRATISCRASESVEYYGTGLMQWYQQKPGQPPKLLIYSASNVESGVPARFTGSGSGTDFSLNIHPVEEDDIAMYFCQQSRKVPWTFGGGTKLEIKR
B12: ChSan11.A287-Fcµtp multimer (antibody, human IgG1)
heavy: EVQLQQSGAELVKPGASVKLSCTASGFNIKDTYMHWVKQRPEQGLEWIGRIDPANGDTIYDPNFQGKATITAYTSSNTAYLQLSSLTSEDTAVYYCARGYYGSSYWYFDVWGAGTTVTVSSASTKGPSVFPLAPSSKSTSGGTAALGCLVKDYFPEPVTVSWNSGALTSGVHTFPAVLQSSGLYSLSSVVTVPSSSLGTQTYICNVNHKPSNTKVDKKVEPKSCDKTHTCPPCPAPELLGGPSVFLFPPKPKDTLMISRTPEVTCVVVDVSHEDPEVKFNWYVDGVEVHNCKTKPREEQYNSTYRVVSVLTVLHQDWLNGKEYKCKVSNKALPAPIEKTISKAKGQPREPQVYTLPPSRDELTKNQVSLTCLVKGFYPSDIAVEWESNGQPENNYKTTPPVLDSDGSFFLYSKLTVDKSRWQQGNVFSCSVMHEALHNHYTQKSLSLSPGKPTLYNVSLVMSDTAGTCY
VL: DIVLTQSPASLAVSLGQRATISCRASESVEYYGTGLMQWYQQKPGQPPKLLIYSASNVESGVPARFTGSGSGTDFSLNIHPVEEDDIAMYFCQQSRKVPWTFGGGTKLEIKR
B13: ChSan11.H285-Fcµtp multimer (antibody, human IgG1)
heavy: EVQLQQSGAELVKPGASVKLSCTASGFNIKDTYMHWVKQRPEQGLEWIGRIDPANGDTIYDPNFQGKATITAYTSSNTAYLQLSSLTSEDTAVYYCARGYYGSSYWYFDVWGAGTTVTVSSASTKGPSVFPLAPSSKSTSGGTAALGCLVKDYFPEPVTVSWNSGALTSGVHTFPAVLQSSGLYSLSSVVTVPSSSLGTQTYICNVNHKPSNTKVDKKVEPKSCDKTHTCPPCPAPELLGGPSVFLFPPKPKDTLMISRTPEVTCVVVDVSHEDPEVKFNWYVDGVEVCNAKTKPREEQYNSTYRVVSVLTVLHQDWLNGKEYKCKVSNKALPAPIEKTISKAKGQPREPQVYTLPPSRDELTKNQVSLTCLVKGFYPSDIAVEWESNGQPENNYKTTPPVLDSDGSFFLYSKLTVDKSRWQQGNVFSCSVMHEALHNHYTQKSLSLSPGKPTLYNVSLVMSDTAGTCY
VL: DIVLTQSPASLAVSLGQRATISCRASESVEYYGTGLMQWYQQKPGQPPKLLIYSASNVESGVPARFTGSGSGTDFSLNIHPVEEDDIAMYFCQQSRKVPWTFGGGTKLEIKR

One assay addresses death receptor 4 (DR4) on the cell surface (Ramos, Colo-205, RPMI 8226 cells) (human, UniProt O00220 24-468). Put plainly: cell-based or functional assay.
In the case of B1, the “cell viability of Ramos cells at 100 ng/ml of antibody (alamarBlue)” value (from here on “cell viability of Ramos cells”) worked out at 80%.

In the case of B2, the “cell viability of Ramos cells” value was determined as 92%.

B3: the “cell killing of Ramos cells at 100 ng/ml of antibody (alamarBlue)” value (shortened to “cell killing of Ramos cells”) is approximately 100% and the “viability of Colo-205 cells at 100 ng/ml of antibody (alamarBlue)” value (from here on “viability of Colo-205 cells”) is less than 35%.

In the case of B4, the “cell killing of Ramos cells” value is approximately 100% and the “viability of Colo-205 cells” value was less than 35%.

Regarding B5, the “cell killing of Ramos cells” value was approximately 100% and the “viability of Colo-205 cells” value was less than 35%.

Regarding B6, the “cell viability of Ramos cells” value is 83%.

With B7, the “cell killing of Ramos cells” value was approximately 100% and the “viability of Colo-205 cells” value was less than 35%.

Consider B8, for which the “cell viability of Ramos cells” value stood at 91%.

For a further assay, the target named is T1, CD30 on the surface of Karpas 299 cells. Put plainly: cell-based or functional assay.
For the molecule B9, the “growth level of Karpas 299 cells (percent cell growth, WST-8, 2 µg/ml antibody, 5 days)” value turned out to be 106%.

As to B10, the “growth level of Karpas 299 cells (percent cell growth, WST-8, 2 µg/ml antibody, 5 days)” value was 41%.

On to B11, for which the “growth level of Karpas 299 cells (percent cell growth, WST-8, 2 µg/ml antibody, 5 days)” value stood at 38%.

For B12, the “growth level of Karpas 299 cells (percent cell growth, WST-8, 2 µg/ml antibody, 5 days)” value worked out at 43%.

With B13, the “growth level of Karpas 299 cells (percent cell growth, WST-8, 2 µg/ml antibody, 5 days)” value is 39%.
